In the RNAGym collection of RNA variant scans (doi:10.1073/pnas.2313332121):

B1: TPR t1 (parent)
chain: GACCAAUCUGCCCUCAGAGCUCGAGAACAUCUUCGGAUGCAGAGGAGGCAGGCUUCGGUGGCGCGAUAGCGCCAACGUCCUCAACCUCCAAUGCAUCCCACCACAUGAUGAUGCCUGAAGAGCCUUGGUUUUUUG

Variants of: B1
Experiment: polymerase ribozyme fitness, log enrichment relative to wild type (log ratio); higher = more active; in vitro selection for triplet polymerase activity
Outline: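 A single round of triplicate in vitro selection, including frozen incubation at −7 °C, was applied to PCR-built, transcribed mutant libraries of each subunit of a heterodimeric triplet polymerase ribozyme. Illumina sequencing of input and output libraries retained genotypes with ≥10 input reads and ≥1 read per output. Fitness is the base-2 logarithm of genotype enrichment divided by wild-type enrichment, from inverse-variance-weighted replicate averages.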

| Variant | polymerase ribozyme fitness (log ratio) |
| --- | --- |
| C62G C73U A83G | -4.25 |
| G60C C97G U109A | -7.09 |
| G61A U112C G127C | 0.55 |
| C62U U126G | -3.05 |
| C62U C124G | 1.52 |
| G63A A105G | -3.92 |
| G61U C89G | -1.53 |
| C62U A95C G113U G135A | -3.24 |
| G60C U78A | -0.111 |
| G61C C79A C80U | -4.17 |
| G61A G113C | -1.78 |
| G61A G120A C123U | 1.5 |
| G61A U78C A95C C123A | 0.138 |
| G60U A121U C124A U131G | -3.49 |
| G63C A84U G117A | -2.46 |
| G63A U112A C114G G122U | -1.75 |
| G63A A121U | 0.59 |
| G61U G77A U130G | -0.935 |
| G60U C62G U92C | -2.78 |
| G61C U116C | -2.77 |
| C62U C73U | -0.0195 |
| G61C G65A | -4.9 |
| C62U A108G | -1.69 |
| G60U U116C U132A | -0.473 |

| Variant | polymerase ribozyme fitness (log ratio) |
| --- | --- |
| G60C U130C | -1.11 |
| C62A A90G | -0.841 |
| G61U U109A U125A | -5.58 |
| G63A A75G G122A G127U | -3.17 |
| G61C G65A C82U | -7.8 |
| C62G C94U | -1.28 |
| G60C G93A | -0.963 |
| G61A A91C C123U | 0.543 |
| G63C A100U G110A C115G | -6.05 |
| C62G A84U A108G | -5.29 |
| G61A A91C C94G A105C U109A A119C | -7.38 |
| G63A A83G U106A | -3.25 |
| C62U C72U U92C U96C | -2.18 |
| G60U U116C | 0.0833 |
| G63A C94A | -0.982 |
| G60U A111G U126A | -1.33 |
| G61A C79A C114A | -3.21 |
| G63A U116C G127U U133A | -5.28 |
| G63C C102A U112A | -1.64 |
| G63C C101U G127U | -1.08 |
| G61C A84U G93C G128A | -5.12 |
| G60U C82U G110U | -1.72 |
| G60U G135C | 0.0909 |
| G60U G135U | -0.871 |

| Variant | polymerase ribozyme fitness (log ratio) |
| --- | --- |
| G61U C86A C115U | -1.4 |
| C62U C76U | -0.133 |
| G61C C102U | -3.06 |
| G61C U106C G135U | -3.18 |
| G63A A84U C115A U125G | -0.899 |
| C62G U131A | -1.42 |
| G61C C101U | -1.77 |
| G61U C82A C89G C101A C102A U112C C123A | -7.12 |
| C62U U131G | -0.5 |
| G63A A74U A95U | -3.67 |
| G61U A66U U112A | 0.256 |
| G61C U78G U130G | -4.62 |
| G61C C97A | -4.3 |
| G63A C79U A83G C123G | 0.0609 |
| G63A U106A U133G | -1.47 |
| C62G U87A | -2.48 |
| G61A A74C | -1.86 |
| G61U C79A C99A G120C | -6.8 |
| C62G G117A U129G | -6 |
| G63C C76U U87G U116A G120A | -4.12 |
| G61U G93A | 0.0678 |
| G63A A90C | -2.84 |
| G63A A91G U129A | -3.01 |
| G63A U132C | -1.92 |

| Variant | polymerase ribozyme fitness (log ratio) |
| --- | --- |
| G61A C85G G93A C101G | -2.53 |
| C62U G113C C124A U133A | -2.07 |
| G63A A66G | -1.9 |
| G63A A66C | -2.96 |
| G60C G63A | -5.52 |
| G61A G127A | -2.37 |
| G61A G127U | -1.35 |
| C62U G71U G120U | 0.0266 |
| C62A A68G C72U | -3.88 |
| C62U U96A | -0.822 |
| C62A U130A | -1.33 |
| G61U G107A U112C G122A | -5.04 |
| G61A C73A A118G | -1.71 |
| G60U C70U | -2.43 |
| G61C C89U | -1.58 |
| G61C A103C U109G | -5.79 |
| G61A C124A | 1.79 |
| G60U C102U U116A | -4.78 |
| G63A A83G A90G C98G A105C | -7.87 |
| G61C U92A C98U C101U U106A U112G G120C | -7.61 |
| G61A U81A | -0.273 |
| G61U C104U U116A | -2.46 |
| G63C C101U C102U G120C | -2.17 |
| G61A U78G G107A C114U G117A | -6.96 |

| Variant | polymerase ribozyme fitness (log ratio) |
| --- | --- |
| C62A U131A | -0.5 |
| G61U U87A | -0.452 |
| C62U C80G | -6.35 |
| C62U U116A G128A | -5.25 |
| G63A C73A A119C G120C | -1.42 |
| C62U A74U | -0.71 |
| C62U U132C | -0.257 |
| C62U U132A | -0.469 |
| G61U G113U | -1.12 |
| C62G C79U U81A C85A | -6.14 |
| G61A A95U A119U G120C C123A | 1.22 |
| G60C C99U G117A U133G | -6.01 |
| G63A G117U | -3.18 |
| G61C C70U | -4.17 |
| C62A A90C U112A | -2.63 |
| C62U U78C C94A | -1.92 |
| G63A U96G U112A | -1.56 |
| G61U C114G | -1.85 |
| G60C G127A | -1.59 |
| G61A C73U U78A | -0.265 |
| G60C U87A C101U G117A U132A | -1.89 |
| C62U A111U | -2.55 |
| G60U C115U | -0.124 |
| C62A C104A A119U | -3.63 |

| Variant | polymerase ribozyme fitness (log ratio) |
| --- | --- |
| G61A A68G | -2.69 |
| G61A C88G U129A | -1.82 |
| G61U C73A U78A | -1.43 |
| G61A U133G | -0.781 |
| G61A G93A C97A G120U U133C | -6.04 |
| G61A G93A A105G G122A | -5.32 |
| C62U C114G A121C G135A | -1.63 |
| G61U U92A | -2.49 |
| G61A C88U C89A | -1.82 |
| C62U C94U | -0.381 |
| C62U G113A | -0.93 |
| C62U G69C | -3.19 |
| G61A U132A | 0.242 |
| C62A U132C | -0.866 |
| C62A U132A | -0.682 |
| G63A C82G | -1.41 |
| C62U G128C | -3.37 |
| G60U U106G | -1.17 |
| G61U U96C | 0.151 |
| C62A G110U | -2.92 |
| C62A G110C | -5.17 |
| G60U C124A | 1.7 |
| G61A U92A C123A | -2.16 |
| G61C G63U | -5.51 |

| Variant | polymerase ribozyme fitness (log ratio) |
| --- | --- |
| G61C G63A | -4.78 |
| G63C C89U C102U A111C C115U | -6.78 |
| G61U G63A | -4.12 |
| C62U C89A C124A | 0.0858 |
| G61U U129G | -1.79 |
| G63A C123U | 0.883 |
| G61U U78G U112G | 0.877 |
| G61C A100U G120C G127U | -1.07 |
| G60C G61C C73G C101G A111U G113C C123U U125G U126G | -7.1 |
| C62G C115A | -1.81 |
| G60U C79U G93A C102A | -2.44 |
| C62A G120U | 0.191 |
| C62A G120A | -0.339 |
| G63A C85A | -2.01 |
| G61U A111C | -0.083 |
| G61U A111G | 0.628 |
| G61A U78C C86A A95C | -1.85 |
| G61C G63C G117C U126A G135U | -4.51 |
| G61C A84C | -1.86 |
| G60C C124A | 1.07 |
| G60C C124G | 0.305 |
| G61A U129C | 0.132 |
| G61A C102G | -6.12 |
